Measured values reported in patent US20240238263A1, “USE OF PYRIDONE DERIVATIVE CONTAINING HETEROATOM CYCLOBUTANE SUBSTITUENT” (GUANGZHOU JOYO PHARMATECH CO., LTD, priority 2021, published 2024).

Test system: dorsal skin full-thickness excisional wound in STZ-induced diabetic rats
Experiment: Dorsal skin full-thickness excisional wound model in STZ-induced diabetic rats, wound closure
Format: in vivo, Wistar rats
Settings: for Remaining open wound area: GeneTime 0.04 mL topical twice daily
Experimental: In this study, 50 STZ-diabetic rats were used to simulate Type 1 diabetes, with an additional 8 normal rats serving as the control group (normal blank gel control group (without STZ)). The method for modeling the STZ-diabetic rat is as follows: Male Wistar rats were weighed and then intraperitoneally injected with Streptozotocin (STZ, freshly prepared, dissolved in 0.1 M citrate buffer (pH 4.5)) at a dosage of 80 mg/kg. STZ was intraperitoneally injected twice in total, with a 5-day interval between injections. Three days after the second STZ injection, rats with fasting blood glucose levels greater than 250 mg/dl were defined as diabetic model rats. Studies on skin wound healing could be conducted from 1 to 8 weeks after the successful establishment of the diabetic rat model. • 2.
In diabetic model rats, the dorsal skin was marked with a stamp, and full-thickness excision was performed to create a standardized wound area. The day of the full-thickness skin excision surgery was designated as Day 1 of the experiment. The specified surgical procedure was as follows: • 1) Prior to surgery, animals were anesthetized with 2-5% isoflurane. The back was shaved and prepared, and the surgical area was disinfected with iodophor, followed by de-iodination with 75% alcohol. • 2) All animals were marked on the skin of their backs using a stamp with a circular pattern. A circular full-thickness skin excision was performed along the midline of the rat's back, extending down to the fascial layer. […] The surgical site was essentially consistent for each animal; • 3) Post-surgery, every 8-12 hours, 8 mg/kg of bupivacaine (diluted to 0.25% with physiological saline) was injected subcutaneously at the wound site. All animals were closely monitored until they regained consciousness. Animals were monitored daily, and if symptoms of pain persisted, they would continue to receive pain medication. • 4. Drug administration:
All experimental groups were topically administered. Before administering the medication, wounds were rinsed with physiological saline and any residual moisture was absorbed with a sterile cotton swab. Then, the medication was applied. For the GeneTime group, the solution was evenly applied to the wound and surrounding skin, with the dressing changed twice a day. For the other groups, the gel samples were applied from the periphery toward the center, focusing first on the edges of the lesion before covering inward, with the dressing changed twice a day. Medication was applied immediately after the wound model was created, and each group was continuously administered for 18 days. For specific administration information, see Table 2. • 5. Efficacy assessment • 1) Blood glucose monitoring: Blood samples were obtained from all animals via tail vein sampling, and fasting blood glucose levels were measured on days 0/9/18 using a glucometer. • 2) Evaluation of wound closure:
After anesthetizing the rats with isoflurane, a ruler was placed near the wound as a reference scale. Using a digital camera, photos of the wound on the rat's back were taken on days 1, 4, 8, 11, 14, and 18, maintaining a constant focus and pixel condition. The obtained images were processed by software to measure the wound area. • 6. Statistical analysis
Experimental data were expressed as the mean±standard error of the mean (mean±S.E.M.). Statistical analyses were conducted using appropriate methods in software such as Graphpad Prism or SPSS. A p-value of less than 0.05 is considered to indicate a significant difference. • 7. Results • 1) Fasting blood glucose
Remaining Open Wound Area %=Open Wound Area (O)/Initial Wound Area (I)*100%

B1: GeneTime: Recombinant Human Epidermal Growth Factor External Solution, 2000 IU/mL; positive control (protein, UniProt P01133 23-1207, looked up)
Pro-epidermal growth factor: PQHWSCPEGTLAGNGNSTCVGPAPFLIFSHGNSIFRIDTEGTNYEQLVVDAGVSVIMDFHYNEKRIYWVDLERQLLQRVFLNGSRQERVCNIEKNVSGMAINWINEEVIWSNQQEGIITVTDMKGNNSHILLSALKYPANVAVDPVERFIFWSSEVAGSLYRADLDGVGVKALLETSEKITAVSLDVLDKRLFWIQYNREGSNSLICSCDYDGGSVHISKHPTQHNLFAMSLFGDRIFYSTWKMKTIWIANKHTGKDMVRINLHSSFVPLGELKVVHPLAQPKAEDDTWEPEQKLCKLRKGNCSSTVCGQDLQSHLCMCAEGYALSRDRKYCEDVNECAFWNHGCTLGCKNTPGSYYCTCPVGFVLLPDGKRCHQLVSCPRNVSECSHDCVLTSEGPLCFCPEGSVLERDGKTCSGCSSPDNGGCSQLCVPLSPVSWECDCFPGYDLQLDEKSCAASGPQPFLLFANSQDIRHMHFDGTDYGTLLSQQMGMVYALDHDPVENKIYFAHTALKWIERANMDGSQRERLIEEGVDVPEGLAVDWIGRRFYWTDRGKSLIGRSDLNGKRSKIITKENISQPRGIAVHPMAKRLFWTDTGINPRIESSSLQGLGRLVIASSDLIWPSGITIDFLTDKLYWCDAKQSVIEMANLDGSKRRRLTQNDVGHPFAVAVFEDYVWFSDWAMPSVMRVNKRTGKDRVRLQGSMLKPSSLVVVHPLAKPGADPCLYQNGGCEHICKKRLGTAWCSCREGFMKASDGKTCLALDGHQLLAGGEVDLKNQVTPLDILSKTRVSEDNITESQHMLVAEIMVSDQDDCAPVGCSMYARCISEGEDATCQCLKGFAGDGKLCSDIDECEMGVPVCPPASSKCINTEGGYVCRCSEGYQGDGIHCLDIDECQLGEHSCGENASCTNTEGGYTCMCAGRLSEPGLICPDSTPPPHLREDDHHYSVRNSDSECPLSHDGYCLHDGVCMYIEALDKYACNCVVGYIGERCQYRDLKWWELRHAGHGQQQKVIVVAVCVVVLVMLLLLSLWGAHYYRTQKLLSKNPKNPYEESSRDVRSRRPADTEDGMSSCPQPWFVVIKEHQDLKNGGQPVAGEDGQAADGSMQPTSWRQEPQLCGMGTEQGCWIPVSSDKGSCPQVMERSFHMPSYGTQTLEGGVEKPHSLLSANPLWQQRALDPPHQMELTQ
modifications: Pro-epidermal growth factor
notes: Recombinant Human Epidermal Growth Factor External Solution, 2000 IU/mL; positive control
Day 1 (day of surgery)
  Remaining open wound area: 100% ±
Day 4
  Remaining open wound area: 91.82% ±
Day 8
  Remaining open wound area: 52.36% ±
Day 14
  Remaining open wound area: 8.17% ±
Day 18
  Remaining open wound area: 1.79% ±
GeneTime, day 11 after administration, P<0.05
  Change of remaining open wound area % vs model blank gel control group: significantly reduced
